Data published in the supplement of paper PMC11246515.
± gives the standard deviation of the averaged measurements.

Assay: total protein half-life in vivo (active degradation + dilution); higher = more stable protein
[1] = E. coli NCM3722 delta-clpP delta-lon delta-hslV, growth: N-lim chemostat, doubling time 6 h
[2] = E. coli NCM3722 delta-lon, growth: N-lim chemostat, doubling time 6 h
[3] = E. coli NCM3722 delta-smpB, growth: N-lim chemostat, doubling time 6 h
[4] = wild type E. coli NCM3722, growth: C-lim chemostat, doubling time 3 h
[5] = wild type E. coli NCM3722, growth: C-lim chemostat, doubling time 6 h
[6] = wild type E. coli NCM3722, growth: C-lim chemostat, doubling time 12 h
[7] = wild type E. coli NCM3722, growth: N-lim chemostat, doubling time 12 h
[8] = wild type E. coli NCM3722, growth: P-lim chemostat, doubling time 12 h

Sequence | total protein half-life in vivo [1] [h] | total protein half-life in vivo (E. coli NCM3722 delta-clpP, growth: N-lim chemostat, doubling time 6 h) [h] | total protein half-life in vivo (E. coli NCM3722 delta-hslV, growth: N-lim chemostat, doubling time 6 h) [h] | total protein half-life in vivo [2] [h] | total protein half-life in vivo [3] [h] | total protein half-life in vivo [4] [h] | total protein half-life in vivo [5] [h] | total protein half-life in vivo [6] [h] | total protein half-life in vivo (wild type E. coli NCM3722, growth: N-lim chemostat, doubling time 6 h) [h] | total protein half-life in vivo [7] [h] | total protein half-life in vivo (wild type E. coli NCM3722, growth: P-lim chemostat, doubling time 6 h) [h] | total protein half-life in vivo [8] [h]
MEKTYNPQDIEQPLYEHWEKQGYFKPNGDESQESFCIMIPPPNVTGSLHMGHAFQQTIMDTMIRYQRMQGKNTLWQVGTDHAGIATQMVVERKIAAEEGKTRHDYGREAFIDKIWEWKAESGGTITRQMRRLGNSVDWERERFTMDEGLSNAVKEVFVRLYKEDLIYRGKRLVNWDPKLRTAISDLEVENRESKGSMWHIRYPLADGAKTADGKDYLVVATTRPETLLGDTGVAVNPEDPRYKDLIGKYVILPLVNRRIPIVGDEHADMEKGTGCVKITPAHDFNDYEVGKRHALPMINILTFDGDIRESAQVFDTKGNESDVYSSEIPAEFQKLERFAARKAVVAAVDALGLLEEIKPHDLTVPYGDRGGVVIEPMLTDQWYVRADVLAKPAVEAVENGDIQFVPKQYENMYFSWMRDIQDWCISRQLWWGHRIPAWYDEAGNVYVGRNEDEVRKENNLGADVVLRQDEDVLDTWFSSALWTFSTLGWPENTDALRQFHPTSVMVSGFDIIFFWIARMIMMTMHFIKDENGKPQVPFHTVYMTGLIRDDEGQKMSKSKGNVIDPLDMVDGISLPELLEKRTGNMMQPQLADKIRKRTEKQFPNGIEPHGTDALRFTLAALASTGRDINWDMKRLEGYRNFCNKLWNASRFVLMNTEGQDCGFNGGEMTLSLADRWILAEFNQTIKAYREALDSFRFDIAAGILYEFTWNQFCDWYLELTKPVMNGGTEAELRGTRHTLVTVLEGLLRLAHPIIPFITETIWQRVKVLCGITADTIMLQPFPQYDASQVDEAALADTEWLKQAIVAVRNIRAEMNIAPGKPLELLLRGCSADAERRVNENRGFLQTLARLESITVLPADDKGPVSVTKIIDGAELLIPMAGLINKEDELARLAKEVAKIEGEISRIENKLANEGFVARAPEAVIAKEREKLEGYAEAKAKLIEQQAVIAAL | 5.35 ± 0.76 | 5.48 ± 1.1 | 4.68 ± 0.11 | 5.17 ± 0.062 | 4.417 ± 0.013 | 3 ± 0.27 | 5.796 ± 0.013 | 10.5 ± 0.32 | 4.721 ± 0.046 | 7.86 ± 0.2 | 5.92 ± 0.23 | 10.7 ± 0.61
MELATTQSVLMQIQPTIQRFARMLASVLQLEVEIVDENLCRVAGTGAYGKFLGRQLSGNSRLLRHVLETKTEKVVTQSRFDPLCEGCDSKENCREKAFLGTPVILQDRCVGVISLIAVTHEQQEHISDNLREFSDYVRHISTIFVSKLLEDQGPGDNISKIFATMIDNMDQGVLVVDDENRVQFVNQTALKTLGVVQNNIIGKPIRFRPLTFESNFTHGHMQHIVSWDDKSELIIGQLHNIQGRQLFLMAFHQSHTSFSVANAPDEPHIEQLVGECRVMRQLKRLISRIAPSPSSVMVVGESGTGKEVVARAIHKLSGRRNKPFIAINCAAIPEQLLESELFGYVKGAFTGASANGKTGLIQAANTGTLFLDEIGDMPLMLQAKLLRAIEAREILPIGASSPIQVDIRIISATNQNLAQFIAEGKFREDLFYRLNVIPITLPPLRERQEDIELLVHYFLHLHTRRLGSVYPGIAPDVVEILRKHRWPGNLRELSNLMEYLVNVVPSGEVIDSTLLPPNLLNNGTTEQSDVTEVSEAHLSLDDAGGTALEEMEKQMIREALSRHNSKKQVADELGIGIATLYRKIKKYELLNT | 4.91 ± 0.062 | – | – | – | – | 1.46 ± 0.072 | 2.41 ± 0.17 | 2.87 ± 0.29 | – | 1.52 | – | 2.56
MELIEKHVSFGGWQNMYRHYSQSLKCEMNVGVYLPPKAANEKLPVLYWLSGLTCNEQNFITKSGMQRYAAEHNIIVVAPDTSPRGSHVADADRYDLGQGAGFYLNATQAPWNEHYKMYDYIRNELPDLVMHHFPATAKKSISGHSMGGLGALVLALRNPDEYVSVSAFSPIVSPSQVPWGQQAFAAYLAENKDAWLDYDPVSLISQGQRVAEIMVDQGLSDDFYAEQLRTPNLEKICQEMNIKTLIRYHEGYDHSYYFVSSFIGEHIAYHANKLNMR | 7.46 | – | – | 4.61 | 2.58 | 2.74 ± 0.72 | 7.26 ± 1 | 6.87 | – | – | – | 10.9
